Experimental data reported in the supplement of paper PMC9112550, “Optimization of the antimicrobial peptide Bac7 by deep mutational scanning” (BMC Biology, 2022).

test system: Escherichia coli TOP10; assay: shrunken log2 fold change of peptide-encoding DNA abundance (4.5 h post-induction vs induction); higher = less antimicrobial activity (less host growth inhibition); settings: time post-induction: 4.5 h; library: site-saturation at positions 5, 18, 19, 20
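Note: peptides expressed intracellularly from a pBAD plasmid library in pooled LB shake-flask culture, induced with 0.3% L-arabinose, DNA abundance read by NGS, three biological replicates, DESeq2 with apeglm shrinkage.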

Row | Sequence | shrunken log2 fold change
1 | RRIRIRPPRLPRPRPRPQCRPRP | -0.0364
2 | RRIRLRPPRLPRPRPRPENFPRP | 0.0173
3 | RRIRLRPPRLPRPRPRPMQLPRP | -0.21
4 | RRIRFRPPRLPRPRPRPSVVPRP | -0.786
5 | RRIRDRPPRLPRPRPRPRWGPRP | 0.471
6 | RRIRGRPPRLPRPRPRPQPFPRP | -0.0232
7 | RRIRKRPPRLPRPRPRPAPCPRP | 0.432
8 | RRIRVRPPRLPRPRPRPPDCPRP | -0.0843
9 | RRIRRRPPRLPRPRPRPLTNPRP | -0.16
10 | RRIRGRPPRLPRPRPRPNPKPRP | 0.391
11 | RRIRFRPPRLPRPRPRPLDFPRP | -0.325
12 | RRIRSRPPRLPRPRPRPPGMPRP | -0.0105
13 | RRIRHRPPRLPRPRPRPCCYPRP | -0.496
14 | RRIRYRPPRLPRPRPRPRDFPRP | -0.161
15 | RRIRERPPRLPRPRPRPNWYPRP | -0.563
16 | RRIRYRPPRLPRPRPRPICEPRP | -0.404
17 | RRIRNRPPRLPRPRPRPGGSPRP | 0.407
18 | RRIRGRPPRLPRPRPRPHHQPRP | -0.185
19 | RRIRWRPPRLPRPRPRPFVTPRP | -0.215
20 | RRIRARPPRLPRPRPRPMYNPRP | -0.48
21 | RRIRRRPPRLPRPRPRPCIAPRP | -0.247
22 | RRIRYRPPRLPRPRPRPMFIPRP | -0.908
23 | RRIRRRPPRLPRPRPRPDEDPRP | 0.219
24 | RRIRSRPPRLPRPRPRPLTPPRP | 0.166
25 | RRIRVRPPRLPRPRPRPRHGPRP | 0.176

Row | Sequence | shrunken log2 fold change
26 | RRIRIRPPRLPRPRPRPGWRPRP | 0.468
27 | RRIRPRPPRLPRPRPRPWNGPRP | 0.0165
28 | RRIRKRPPRLPRPRPRPNPNPRP | 0.179
29 | RRIRARPPRLPRPRPRPPDEPRP | 0.338
30 | RRIRSRPPRLPRPRPRPAQKPRP | 0.33
31 | RRIRCRPPRLPRPRPRPLCGPRP | -0.0842
32 | RRIRARPPRLPRPRPRPLDKPRP | 0.332
33 | RRIRGRPPRLPRPRPRPMQCPRP | -0.0159
34 | RRIRWRPPRLPRPRPRPVRAPRP | 0.636
35 | RRIRERPPRLPRPRPRPRVKPRP | -0.207
36 | RRIRARPPRLPRPRPRPWICPRP | -0.0278
37 | RRIRRRPPRLPRPRPRPSNSPRP | -0.108
38 | RRIRPRPPRLPRPRPRPCDDPRP | 0.0508
39 | RRIRIRPPRLPRPRPRPTMVPRP | -0.719
40 | RRIRIRPPRLPRPRPRPCMGPRP | -1.07
41 | RRIRRRPPRLPRPRPRPFIFPRP | 0.25
42 | RRIRSRPPRLPRPRPRPKTRPRP | 0.156
43 | RRIRGRPPRLPRPRPRPLWWPRP | 0.458
44 | RRIRARPPRLPRPRPRPNIIPRP | -0.248
45 | RRIRIRPPRLPRPRPRPERWPRP | 1.8
46 | RRIRERPPRLPRPRPRPHCHPRP | -0.657
47 | RRIRRRPPRLPRPRPRPPQAPRP | 1.19
48 | RRIRNRPPRLPRPRPRPQHGPRP | -0.0487
49 | RRIRVRPPRLPRPRPRPQSYPRP | -0.461
50 | RRIRYRPPRLPRPRPRPWCYPRP | -1.21

Row | Sequence | shrunken log2 fold change
51 | RRIRMRPPRLPRPRPRPLRWPRP | 1.32
52 | RRIRRRPPRLPRPRPRPLHGPRP | 0.233
53 | RRIRSRPPRLPRPRPRPVTNPRP | -0.0242
54 | RRIRDRPPRLPRPRPRPACCPRP | 0.512
55 | RRIRGRPPRLPRPRPRPEAGPRP | 1.21
56 | RRIRDRPPRLPRPRPRPLSWPRP | 0.488
57 | RRIRARPPRLPRPRPRPTYVPRP | 0.504
58 | RRIRHRPPRLPRPRPRPHFKPRP | -0.455
59 | RRIRVRPPRLPRPRPRPGYEPRP | 0.232
60 | RRIRHRPPRLPRPRPRPFSDPRP | -0.149
61 | RRIRGRPPRLPRPRPRPPGFPRP | 0.484
62 | RRIRYRPPRLPRPRPRPQFAPRP | 0.0437
63 | RRIRMRPPRLPRPRPRPFKYPRP | -0.164
64 | RRIRMRPPRLPRPRPRPLYTPRP | -0.116
65 | RRIRARPPRLPRPRPRPPDYPRP | 0.406
66 | RRIRQRPPRLPRPRPRPWCMPRP | -0.342
67 | RRIRSRPPRLPRPRPRPQTWPRP | -0.164
68 | RRIRMRPPRLPRPRPRPLFFPRP | 0.135
69 | RRIRGRPPRLPRPRPRPPSFPRP | 0.653
70 | RRIRKRPPRLPRPRPRPGKYPRP | 0.0356
71 | RRIRQRPPRLPRPRPRPMSAPRP | -0.107
72 | RRIRARPPRLPRPRPRPLFQPRP | 0.0426
73 | RRIRERPPRLPRPRPRPPMNPRP | -0.82
74 | RRIRERPPRLPRPRPRPHATPRP | 0.238
75 | RRIRERPPRLPRPRPRPGYCPRP | -0.432

Row | Sequence | shrunken log2 fold change
76 | RRIRKRPPRLPRPRPRPPMDPRP | 0.587
77 | RRIRSRPPRLPRPRPRPCRKPRP | -0.012
78 | RRIRKRPPRLPRPRPRPCQGPRP | -0.141
79 | RRIRERPPRLPRPRPRPPYMPRP | -1.73
80 | RRIRKRPPRLPRPRPRPEPTPRP | 1.47
81 | RRIRHRPPRLPRPRPRPYVAPRP | -0.912
82 | RRIRIRPPRLPRPRPRPIGYPRP | -0.085
83 | RRIRWRPPRLPRPRPRPIPIPRP | -0.12
84 | RRIRTRPPRLPRPRPRPLHFPRP | -0.189
85 | RRIRIRPPRLPRPRPRPIEEPRP | -0.0195
86 | RRIRWRPPRLPRPRPRPFIVPRP | -0.325
87 | RRIRGRPPRLPRPRPRPDLIPRP | 0.87
88 | RRIRFRPPRLPRPRPRPSHFPRP | -0.136
89 | RRIRIRPPRLPRPRPRPKCKPRP | -1.21
90 | RRIRDRPPRLPRPRPRPNTNPRP | -0.448
91 | RRIRIRPPRLPRPRPRPHICPRP | -0.0273
92 | RRIRKRPPRLPRPRPRPTCIPRP | -0.176
93 | RRIRTRPPRLPRPRPRPIIAPRP | 0.00466
94 | RRIRNRPPRLPRPRPRPTVKPRP | -0.00906
95 | RRIRFRPPRLPRPRPRPTRHPRP | 0.519
96 | RRIRCRPPRLPRPRPRPIAPPRP | 0.509
97 | RRIRRRPPRLPRPRPRPELYPRP | 0.247
98 | RRIRGRPPRLPRPRPRPYQLPRP | 0.147
99 | RRIRVRPPRLPRPRPRPHEKPRP | 0.0571
100 | RRIRTRPPRLPRPRPRPKQVPRP | -0.0584

Row | Sequence | shrunken log2 fold change
101 | RRIRIRPPRLPRPRPRPEPSPRP | 3.27
102 | RRIRRRPPRLPRPRPRPIMQPRP | -0.0408
103 | RRIRHRPPRLPRPRPRPYKFPRP | -0.0481
104 | RRIRPRPPRLPRPRPRPDIHPRP | -0.458
105 | RRIRGRPPRLPRPRPRPKISPRP | 0.477
106 | RRIRPRPPRLPRPRPRPVQVPRP | -0.119
107 | RRIRFRPPRLPRPRPRPNEHPRP | -0.525
108 | RRIRSRPPRLPRPRPRPRMVPRP | 0.174
109 | RRIRWRPPRLPRPRPRPDKIPRP | -0.0504
110 | RRIRLRPPRLPRPRPRPASMPRP | -0.357
111 | RRIRPRPPRLPRPRPRPRASPRP | 0.548
112 | RRIRIRPPRLPRPRPRPAKRPRP | 0.0281
113 | RRIRTRPPRLPRPRPRPKVVPRP | 2.37
114 | RRIRLRPPRLPRPRPRPKPMPRP | 0.964
115 | RRIRNRPPRLPRPRPRPSAWPRP | -0.135
116 | RRIRMRPPRLPRPRPRPGTTPRP | 1.24
117 | RRIRLRPPRLPRPRPRPWSWPRP | 0.0711
118 | RRIRIRPPRLPRPRPRPQHKPRP | -0.621
119 | RRIRDRPPRLPRPRPRPDCRPRP | 0.249
120 | RRIRYRPPRLPRPRPRPSHCPRP | -0.549
121 | RRIRIRPPRLPRPRPRPMRRPRP | 0.0307
122 | RRIRNRPPRLPRPRPRPRTVPRP | -0.403
123 | RRIRMRPPRLPRPRPRPRVLPRP | 1.12
124 | RRIRWRPPRLPRPRPRPLWDPRP | 0.235
125 | RRIRNRPPRLPRPRPRPWNRPRP | 0.0601

Row | Sequence | shrunken log2 fold change
126 | RRIRQRPPRLPRPRPRPQDKPRP | -0.802
127 | RRIRHRPPRLPRPRPRPFITPRP | -0.799
128 | RRIRQRPPRLPRPRPRPILFPRP | 0.0255
129 | RRIRCRPPRLPRPRPRPGWPPRP | 0.63
130 | RRIRGRPPRLPRPRPRPIYLPRP | 0.0531
131 | RRIRARPPRLPRPRPRPGSRPRP | 0.279
132 | RRIRDRPPRLPRPRPRPSPRPRP | 0.00292
133 | RRIRIRPPRLPRPRPRPAQPPRP | 0.213
134 | RRIRMRPPRLPRPRPRPGCWPRP | 0.984
135 | RRIRWRPPRLPRPRPRPLICPRP | 0.803
136 | RRIRPRPPRLPRPRPRPEFCPRP | 0.18
137 | RRIRFRPPRLPRPRPRPMGIPRP | -0.23
138 | RRIRLRPPRLPRPRPRPWQQPRP | 0.00911
139 | RRIRNRPPRLPRPRPRPENCPRP | 0.0518
140 | RRIRVRPPRLPRPRPRPIVLPRP | -0.176
141 | RRIRNRPPRLPRPRPRPKQTPRP | 0.317
142 | RRIRARPPRLPRPRPRPEQNPRP | 0.928
143 | RRIRDRPPRLPRPRPRPCKSPRP | -0.321
144 | RRIRFRPPRLPRPRPRPPKIPRP | 0.145
145 | RRIRERPPRLPRPRPRPRGWPRP | 0.917
146 | RRIRQRPPRLPRPRPRPGYIPRP | -0.625
147 | RRIRTRPPRLPRPRPRPPSCPRP | 0.35
148 | RRIRRRPPRLPRPRPRPNQEPRP | -0.0479
149 | RRIRTRPPRLPRPRPRPVGYPRP | 0.35
150 | RRIRCRPPRLPRPRPRPSHTPRP | -0.283
